Our source for the IC50 and EC50 values is patent US20210061893A1.

Where no end group is shown, it is not given here.

Broadly, the IC50 is the concentration that inhibits the measured activity by half. One may read the EC50 as the concentration needed to bring the measured effect to its halfway point. Read a low EC50 as higher potency in that assay.

Assay [1] addresses phoenixin binding sites on rat pituitary adenoma cells, RC-4B/C (rat). As to the kind of experiment: displacement of 50 pM 125I-Y0-Phoenixin-20 amide from RC-4B/C cells, gamma counting.
The target of assay [2] is antibodies raised to …-NH2 (SEQ. ID NO: 7). The assay is described as follows: RIA or EIA, competitive immunoassay with antibodies raised to SEQ ID NO: 7; standard peptide not named.

In turn, AGIVQEDVQPPGLKVWSDPF-NH2 [Phoenixin-20 amide, …-NH2] showed a half-inhibitory concentration (IC50) in assay [1] of 21.5 nM. For the same molecule, in assay [2], the EC50 came out at 0.2 ng/mL. Take DVQPPGLKVWSDPF-NH2 [phoenixin-14 amide, …-NH2]: in assay [1], the IC50 came out at 17.9 nM.
